Assays:
[1] = biological target: T1, CLL subset 2 typical BCR on TKO cells (FIG. 1B); assay: FACS on TKO cells expressing the BCR, hybridoma supernatant
T1 construct: The light chain is the VL3-21 variant and carries R110; also called CLL subset 2 BCR; BCR of interest
Source text: (§1) For the screening procedure, different vectors for the following heavy chain (HC) and light chain (LC) combinations of the corresponding CLL-BCRs were used in the previous transformation, and these combinations were used on the surface of the BCR reconstitution system: [0080] Control (transformation vector without BCR) (see FIG. 1A). [0081] Vector with HC/LC (VL3-21) typical of CLL subset 2 (see FIG. 1B). [0082] Vector with a non-CLL subset 2 HC/LC typical for CLL subset 2 (VL3-21; without target motif R110G) (see FIG. 1C) [0083] Vector with a HC typical for CLL subset 2/a non-CLL subset 2 LC (see FIG. 1D) [0084] Vector with a non-CLL subset 2 HC/a non-CLL subset 2 LC (see FIG. 1E) [0085] Vector with HC/LC typical for CLL subset 2 (VL3-21; including mutation R110G (target motif)) (see FIG. 1F).
(§2) In the first round of selection, supernatants from multiple clones were combined and examined with respect to their binding profile to the selection matrix. A positive binding profile is given if a specific binding to the “BCR-of-Interest” is shown. Groups showing such a profile were singulated, and the binding profile of each clone was characterized again on the selection matrix in a second round of selection. Binding of the monoclonal antibodies was verified using a FACS binding assay with a fluorescently labeled anti-mouse IgG antibody. […]

[2] = biological target: T1, CLL subset 2 typical BCR on TKO cells …; assay: FACS binding assay on TKO cells, fluorescently labeled anti-mouse IgG
Source text: as §1, §2

T1 sequence (heavy, as listed by the source, chain 1 of 2): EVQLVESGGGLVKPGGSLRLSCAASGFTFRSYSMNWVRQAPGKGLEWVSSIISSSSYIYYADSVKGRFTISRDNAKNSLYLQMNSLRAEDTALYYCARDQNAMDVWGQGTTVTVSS
T1 sequence (light, as listed by the source, chain 2 of 2): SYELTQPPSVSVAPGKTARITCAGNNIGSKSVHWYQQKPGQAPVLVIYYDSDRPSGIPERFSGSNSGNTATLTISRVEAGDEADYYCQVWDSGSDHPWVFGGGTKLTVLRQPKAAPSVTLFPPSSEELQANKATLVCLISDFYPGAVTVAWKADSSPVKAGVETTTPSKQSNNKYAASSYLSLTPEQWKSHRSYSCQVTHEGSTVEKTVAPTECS

B1: AVA-mAb02 (antibody, V domains shown)
VH: QVQLQQPGAELVRPGVSVKISCKGSGYTFTDYAIHWVKQSHAKSLEWIGVISTYYGDSNYNQKFKGKATMTVNKSSSTAYMELARLTSDDSAIYYCSRDTSNFDYWGQGTTLTVSS
VL: DIQMTQSPSSMYASLGERVTITCKASQDINSHLTWFQQKPGKSPKTLIYRANRLVDGVPSRFSGSGSGQDYSLTISSLEYEDMGIYYCLQYDEFPRTFGGGTKLEIK
notes: Murine monoclonal antibody; Tested as hybridoma supernatant and detected with anti-mouse IgG; also called VL3-21 specific antibody
binding result [1]: binds

B2: AVA-mAb01 (antibody, V domains shown)
VH: QVQLQQSGPGLVQPSQSLSITCTVSGFSLTSYGIHWVRQSPGKGLEWLGVIWRGGGTDSNAAFMSRLSITKDNSKSQVFFKMNSLQADDTAIYYCARSRYDEEESMNYWGQGTSVTVSS
VL: QIVLTQSPASLSASVGETVTITCRASGNIHSYLAWYQQKQGKSPQLLVYNAKTLADGVPSRFSGSGSGTQYSLKINSLQPEDFGSYYCQHFWNTPPTFGAGTKLELK
notes: Murine monoclonal antibody from a hybridoma, detected with anti-mouse IgG; also called specific monoclonal antibody against subset-2; the selected antibody
binding result [2]: binds

Source: patent US20220227864A1 (AVA LIFESCIENCE, published 2022)
